The experiment deals with Blinkin (UniProt Q8NG31). Kind of experiment: GST pull-down from mitotic lysate. To be noted: sites Y207.

As to “Bub3 (from UniProt O43684) GST-Bub3 WT incubated with His-PKM2”, the “binding against the reference” value (reference: GST-Bub3 WT without His-PKM2) is given as “stronger”.
For “Bub3 (from UniProt O43684) GST-Bub3 WT with His-PKM2 and PEP”, the “binding against the reference” value was “stronger” (reference: GST-Bub3 WT with His-PKM2, no PEP) and “stronger” (reference: GST-Bub3 WT, PEP, no His-PKM2).

Values taken from publication PMC3955203.
